Experimental findings from patent US20220340673A1 (HARBOUR BIOMED SUZHOU, published 2022) are described below.

The target of assay [1] is T1, human BCMA on cells (HEK293T/huBCMA; NCI-H929) (human, UniProt Q02223 1-184).
T1 construct: whole, on cells; also called human BCMA molecules on NCI-H929 cell line
T1 sequence (looked up): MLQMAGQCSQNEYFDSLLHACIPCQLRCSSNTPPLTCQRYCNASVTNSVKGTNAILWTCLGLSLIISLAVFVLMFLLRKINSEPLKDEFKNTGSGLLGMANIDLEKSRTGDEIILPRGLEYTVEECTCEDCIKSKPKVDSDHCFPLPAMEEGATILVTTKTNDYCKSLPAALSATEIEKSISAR
Put plainly: FACS on HEK293T/huBCMA cells. From the text:
(§1) To study the in vitro binding activity of the BCMA arm of the BCMA×CD3 bispecific antibody, HEK293T cell strain overexpressing human BCMA (HEK293T/huBCMA) and HEK293T cell strain overexpressing cynomolgus monkey BCMA (HEK293T/cynoBCMA) were used for antibody binding experiments at cellular level. Briefly, HEK293T/huBCMA cells and HEK293T/cynoBCMA cells were digested and resuspended with DMEM complete medium. The cell density of the two was adjusted to 1×10⁶ cells/mL, respectively. Cells were inoculated at 100 μL cells/well in a 96 well V-bottom plate (Corning, Cat#: 3894), followed by the addition of test antibodies at 100 μL/well, which is gradient diluted at 3 folds of the concentration with 2 folds of the final concentration. Cells were incubated at 4° C. for 1 hour in the dark. Afterwards, the cells were washed twice with 100 μL/well of pre-cooled PBS, centrifuged at 500 g for 5 min at 4° C., and followed by discarding the supernatant. 100 μL/well of fluorescent secondary antibody (Alexa Fluor 488-conjugated AffiniPure Goat Anti-Human IgG, Fcγ Fragment Specific, Jackson, Cat#: 109-545-06, 1:500 dilution) was added and incubated for 30 min at 4° C. in the dark. […] Finally, the cells were resuspended with 200 μL/well of pre-cooled PBS, and the fluorescence luminescence signal values were read by BD FACS CANTOII. […]

Assay [2] addresses T1, human BCMA on cells (HEK293T/huBCMA; …). Kind of assay: FACS on NCI-H929 cell line [B]. The protocol:
To study the binding activity of the BCMA arm of the BCMA×CD3 bispecific antibody to human BCMA, NCI-H929 cell line with highly expressed BCMA was used for binding experiments with human BCMA at cellular level. Briefly, NCI-H929 cell suspensions were collected. The cell density was adjusted to 1×10⁶ cells/mL, and the cells were inoculated in 96 well V-bottom plates at 100 μL cells/well (Corning, Cat#: 3894), followed by the addition of test antibodies at 100 μL/well, which is gradient diluted at 3 folds of the concentration with 2 folds of the final concentration. Cells were incubated at 4° C. for 2 hours in the dark. Afterwards, cells were washed twice with 100 μL/well of pre-cooled PBS, centrifuged at 500 g for 5 min at 4° C., and followed by discarding the supernatant. 100 μL/well of fluorescent secondary antibody (Alexa Fluor 488-conjugated AffiniPure Goat Anti-Human IgG, Fcγ Fragment Specific, Jackson, Cat#:109-545-06, 1:500 dilution) was added and incubated at 4° C. for 1 hour in the dark. Cells were washed twice with 100 μL/well of pre-cooled PBS, centrifuged at 500 g, 4° C. for 5 min, and followed by discarding the supernatant. Finally, the cells were resuspended with 200 μL/well of pre-cooled PBS, and the fluorescence luminescence signal values were read by BD FACS CANTOII.

The target of assay [3] is T2, cynomolgus monkey BCMA on cells (HEK293T/cynoBCMA) (cynomolgus monkey, UniProt A0A2K5UD97 1-183).
T2 construct: whole, on cells
T2 sequence (A0A2K5UD97 entry or part of it): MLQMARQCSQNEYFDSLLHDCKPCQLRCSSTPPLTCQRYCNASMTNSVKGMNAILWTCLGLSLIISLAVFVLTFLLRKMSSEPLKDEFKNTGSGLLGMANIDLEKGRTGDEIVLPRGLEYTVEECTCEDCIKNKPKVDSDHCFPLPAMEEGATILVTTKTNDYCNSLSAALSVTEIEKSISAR
Kind of assay: FACS on HEK293T cell strain overexpressing cynomolgus monkey BCMA [C].
Description: as §1

Assay [4] concerns the target T3, cynomolgus monkey BCMA-Fc, Avitag (ACRO, Cat. BCA-C82F4) (cynomolgus monkey, UniProt A0A2K5UD97 1-53).
T3 construct: Bought reagent; amine-coupled to the CM5 chip; also called cynomolgus monkey BCMA recombinant protein; not shown: Fc and Avitag of the bought protein
Put plainly: Biacore, antigen coupled to a CM5 chip, PR003178 injected at 6-0.1875 nM, 1:1 kinetic fit [E]. The protocol: Human BCMA-Fc, Avitag recombinant protein (ACRO, Cat. BC7-H82F0), cynomolgus monkey BCMA-Fc, Avitag (ACRO, Cat. BCA-C82F4) were purchased from ACRO, human CD3e/g ECD-hFc recombinant protein (Lot.20190508002), cynomolgus monkey CD3e/g ECD-hFc recombinant protein and human (Lot.2018040001) were purchased from ChemPartner.
The flow rate was set as 10 μl/min and four antigens were coupled on four channels on two CMS: 1) the injection time was set as 300 s, and 50 mM of NHS and 200 mM of EDC were freshly mixed at 1:1 volume ratio and injected into four channels; 2) human BCMA-Fc, Avitag recombinant protein, cynomolgus monkey BCMA-FC, Avitag, human CD3e/g ECD-hFc recombinant protein and cynomolgus CD3e/g ECD-hFc recombinant protein were all diluted to 1 μg/ml with sodium acetate (Cat# BR-1003-50) (pH 4.5), and injected into channel 2, 3 and 4 of chip 1 and channel 2 of chip 2, respectively; 3) 1 M of ethanolamine (pH8.5) was injected for 300 s to block the remaining active carboxyl groups on the chips surface. After blockage, the instrument was continued to be equilibrated with 1 ×HBS- EP+buffer for two hours. The final coupling amounts of human BCMA-Fc, Avitag recombinant protein, cynomolgus monkey BCMA-Fc, Avitag, human CD3e/g ECD-hFc recombinant protein and cynomolgus monkey CD3e/g ECD-hFc recombinant protein were 120 RU, 70 RU, 200 RU and 290 RU, respectively.
A multi-cycle kinetic mode was set, and each cycle included the binding of PRO03178 as well as the regeneration of the chip. PRO03178 with two-fold gradient dilution was injected into four channels at a flow rate of 30 μl/min. A binding time of 180 s and a dissociation time of 400 s or 600s were set. Finally, 10 mM of glycine-hydrochloric acid (pH 1.5) (GE Life Sciences, Cat# BR-1003-54) was injected at the same flow rate for 60 s to regenerate the chip.
(In general: SPR reads the build-up and loss of mass on a sensor chip optically.)

T3 sequence (A0A2K5UD97 entry or part of it): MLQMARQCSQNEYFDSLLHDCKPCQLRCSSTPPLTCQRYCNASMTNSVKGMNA

B1: BCMA x CD3 bispecific antibody PR003178 (bispecific antibody, human IgG1, lambda, L234A L235A)
heavy 1: not shown
light: QAVVTQEPSLTVSPGGTVTLTCRSSTGAVTTSNYANWVQQKPGQAPRGLIGGTNKRAPWTPARFSGSLLGDKAALTLLGAQPEDEAEYFCALWYSNLWVFGGGTKLTVLGQPKAAPSVTLFPPSSEELQANKATLVCLISDFYPGAVTVAWKADSSPVKAGVETTTPSKQSNNKYAASSYLSLTPEQWKSHRSYSCQVTHEGSTVEKTVAPTECS
heavy 2: EVQLVETGGGLIQPGGSLRLSCAASGFTVSDNYMTWVRQAPGKGLEWVSVIFSGGNTYYADSVKGRFTISRDNAKNTLYLQMNSLRAEDTALYYCARRNYDDTRGTDVFDIWGQGTMVTVSSGGGGSGGGGSGGGGSEVQLVETGGGLIQPGGSLRLSCAASGFTVSDNYMTWVRQAPGKGLEWVSVIFSGGNTYYADSVKGRFTISRDNAKNTLYLQMNSLRAEDTALYYCARRNYDDTRGTDVFDIWGQGTMVTVSSASEPKSSDKTHTCPPCPAPEAAGGPSVFLFPPKPKDTLMISRTPEVTCVVVDVSHEDPEVKFNWYVDGVEVHNAKTKPREEQYNSTYRVVSVLTVLHQDWLNGKEYKCKVSNKALPAPIEKTISKAKGQPREPQVCTLPPSREEMTKNQVSLSCAVKGFYPSDIAVEWESNGQPENNYKTTPPVLDSDGSFFLVSKLTVDKSRWQQGNVFSCSVMHEALHNHYTQKSLSLSPGK
notes: Three chains: HC1 (anti-CD3 heavy, knob, LALA), LC (anti-CD3 lambda light), HC2 (two tandem anti-BCMA VH of PR001046 joined by (G4S)3, then Fc hole, LALA); also called PRO03178
The term EC50 denotes the midpoint of the concentration-response curve. For orientation: Kd means the constant that tells how readily two partners part at equilibrium. Broadly, the koff is the rate constant with which the complex falls apart. For orientation: kon means the rate constant with which the complex forms. Turning to B1, the “fold lower EC50 than positive control 2” value in assay [1] was approximately 5 fold. This molecule came in with an EC50 in assay [2] of 1.1 nM. In addition, the EC50 in assay [3] came to 0.921 nM. In assay [4], this molecule came in with a dissociation constant (Kd) of 0.147 nM, an off-rate (koff) of 0.000285 s⁻¹ and a kon of 1.94e+06 M⁻¹ s⁻¹.
